Where no end group is shown, it is not given here. 7‑COOH‑Br3Bt = not defined here
Biological target: catalytic subunit of human protein kinase CK2 (human) (UniProt P68400)
Sequence (P68400 whole entry): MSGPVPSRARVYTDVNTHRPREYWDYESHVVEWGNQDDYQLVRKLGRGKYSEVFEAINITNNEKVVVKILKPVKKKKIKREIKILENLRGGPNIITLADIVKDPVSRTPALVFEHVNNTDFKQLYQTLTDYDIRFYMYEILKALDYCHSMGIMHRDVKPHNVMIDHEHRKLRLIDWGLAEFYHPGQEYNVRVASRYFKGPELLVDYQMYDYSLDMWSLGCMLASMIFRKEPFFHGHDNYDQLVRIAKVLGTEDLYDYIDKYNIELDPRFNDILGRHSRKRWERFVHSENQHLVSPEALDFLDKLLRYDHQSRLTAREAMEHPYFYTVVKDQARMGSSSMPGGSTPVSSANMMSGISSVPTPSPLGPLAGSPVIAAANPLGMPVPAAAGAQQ

- IC50 of inhibition of hCK2α kinase activity (ADP-Glo assay; 10 μM substrate peptide …, 10 μM ATP, 30 °C): 670 nM
B1: bi-substrate inhibitor (KESEEE-NH2 conjugated with 7-COOH-Br3Bt) (peptide)
peptide: K(7‑COOH‑Br3Bt)ESEEE-NH2
modifications: reading uncertain

Reference: publication PMC6662822, “Rational drug-design approach supported with thermodynamic studies — a peptide leader for the efficient bi-substrate inhibitor of protein kinase CK2” (Scientific Reports, 2019)
